Drawing on paper PMC314469, “Protein Interaction Networks by Proteome Peptide Scanning” (PLoS Biology, 2004), this text covers normalised SPOT signal, Boehringer light units (BLU); mean over the file's lines of this peptide for 54 molecules.

Sequences and labels used below:
T1: Myo5 SH3 (MYO5_YEAST), Q04439
T1 chain: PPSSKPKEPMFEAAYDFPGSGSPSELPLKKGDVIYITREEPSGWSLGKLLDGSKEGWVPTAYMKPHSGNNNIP

The assay has as its target T1, Myo5 SH3 (MYO5_YEAST), Q04439. In words: SPOT array.
SWAVLPVPGGPVMY [YJL195C 85-98] had a normalised SPOT signal, Boehringer light units (BLU); mean over the file's lines of this peptide of 69.2.

In turn, TLHELGVPITPIAF [YOR184W 245-258] yielded a normalised SPOT signal, Boehringer light units (BLU); mean over the file's lines of this peptide of 119.

Turning to TAAELQAPPPPPSS [YPL004C 14-27], the normalised SPOT signal, Boehringer light units (BLU); mean over the file's lines of this peptide was found to be 315.

Turning to SPKKLASPRTPNAN [YKR077W 157-170], the normalised SPOT signal, Boehringer light units (BLU); mean over the file's lines of this peptide was determined as 276.

With TLIEYMGPAPPKGS [YLR178C 145-158], the normalised SPOT signal, Boehringer light units (BLU); mean over the file's lines of this peptide stood at 133.

As for TLPPLSSPMNPNGH [YDR096W 584-597], the normalised SPOT signal, Boehringer light units (BLU); mean over the file's lines of this peptide was determined as 252.

Molecule SFVHLTEPSQPLSD [YOR032C 362-375] displayed a normalised SPOT signal, Boehringer light units (BLU); mean over the file's lines of this peptide of 99.7.

TLEWLLTPYTPGDD [YLR422W 982-995] showed a normalised SPOT signal, Boehringer light units (BLU); mean over the file's lines of this peptide of 164.

TLFRFIVPFNPYFS [YLR198C 4-17] registered a normalised SPOT signal, Boehringer light units (BLU); mean over the file's lines of this peptide of 882.

With TLRSMIPPFTPQLD [YGR092W 484-497], the normalised SPOT signal, Boehringer light units (BLU); mean over the file's lines of this peptide worked out at 413.

SPSDFNKPDLPELI [YER003C 229-242] gave a normalised SPOT signal, Boehringer light units (BLU); mean over the file's lines of this peptide of 317.

The molecule SLVKFSSPMTPLLE [YHR072W 246-259] yielded a normalised SPOT signal, Boehringer light units (BLU); mean over the file's lines of this peptide of 249.

TLATLTEPKLPKSY [YOL111C 18-31] yielded a normalised SPOT signal, Boehringer light units (BLU); mean over the file's lines of this peptide of 18.

For SFTRMPLPTPPIEG [YGL235W 82-95], the normalised SPOT signal, Boehringer light units (BLU); mean over the file's lines of this peptide came to 287.

For SPSTHAAPVTPIIS [YNL027W 321-334], the normalised SPOT signal, Boehringer light units (BLU); mean over the file's lines of this peptide was 53.3.

SLQQFYNPESPIQP [YOR155C 390-403] had a normalised SPOT signal, Boehringer light units (BLU); mean over the file's lines of this peptide of 131.

On to SPRSLPTPILPSMS [YML083C 47-60], for which the normalised SPOT signal, Boehringer light units (BLU); mean over the file's lines of this peptide is 193.

For the molecule TPMDFPEPVGPLAI [YPL154C 366-379], the normalised SPOT signal, Boehringer light units (BLU); mean over the file's lines of this peptide was determined as 175.

Regarding SPLSWSGPLTPPTF [YNL243W 594-607], the normalised SPOT signal, Boehringer light units (BLU); mean over the file's lines of this peptide is 168.

The molecule SLAVYNIPLFPDDP [YLL002W 276-289] gave a normalised SPOT signal, Boehringer light units (BLU); mean over the file's lines of this peptide of 91.7.

Molecule SLTSLPPPPPPQFS [YPL014W 217-230] came in with a normalised SPOT signal, Boehringer light units (BLU); mean over the file's lines of this peptide of 7260.

The molecule SPRHYNVPSSPIAP [YIL101C 572-585] registered a normalised SPOT signal, Boehringer light units (BLU); mean over the file's lines of this peptide of 233.

SPKPFSKPQEPVKA [YCR088W 389-402] had a normalised SPOT signal, Boehringer light units (BLU); mean over the file's lines of this peptide of 359.

SLDNFYNPLGPEDR [YNR012W 89-102] returned a normalised SPOT signal, Boehringer light units (BLU); mean over the file's lines of this peptide of 143.

The molecule TAWDMVPPYSPLSE [YPR090W 8-21] yielded a normalised SPOT signal, Boehringer light units (BLU); mean over the file's lines of this peptide of 127.

Molecule TFSIYSIPSKPGES [YPL100W 474-487] registered a normalised SPOT signal, Boehringer light units (BLU); mean over the file's lines of this peptide of 227.

SWRSLTKPKIPLYK [YMR287C 119-132] came in with a normalised SPOT signal, Boehringer light units (BLU); mean over the file's lines of this peptide of 357.

In turn, SPKFLNSPDLPERT [YDL225W 441-454] returned a normalised SPOT signal, Boehringer light units (BLU); mean over the file's lines of this peptide of 183.

With TPINFVFPNLPLEH [YHR007C 237-250], the normalised SPOT signal, Boehringer light units (BLU); mean over the file's lines of this peptide amounted to 81.8.

With TPPPPPLPSVLSS [YNL271C 1302-1314], the normalised SPOT signal, Boehringer light units (BLU); mean over the file's lines of this peptide is 25800.

In turn, SPNDHSDPSSPSNR [YNR014W 177-190] displayed a normalised SPOT signal, Boehringer light units (BLU); mean over the file's lines of this peptide of 76.1.

The molecule SPSTMDFPKLPSFQ [YPL089C 234-247] registered a normalised SPOT signal, Boehringer light units (BLU); mean over the file's lines of this peptide of 467.

TLKKFVLPSLPRKN [YOR034C 339-352] yielded a normalised SPOT signal, Boehringer light units (BLU); mean over the file's lines of this peptide of 504.

Regarding SFRELWQPVDPSRE [YLR301W 124-137], the normalised SPOT signal, Boehringer light units (BLU); mean over the file's lines of this peptide turned out to be 97.3.

As for SFRKLASPSNPNFF [YMR036C 409-422], the normalised SPOT signal, Boehringer light units (BLU); mean over the file's lines of this peptide was found to be 209.

With SFVGFPKPLLPRNH [YHR082C 909-922], the normalised SPOT signal, Boehringer light units (BLU); mean over the file's lines of this peptide amounted to 205.

Molecule SPKKHVSPSRPPSV [YAL028W 272-285] came in with a normalised SPOT signal, Boehringer light units (BLU); mean over the file's lines of this peptide of 1430.

TEGKYAPPSQPSMA [YDL195W 822-835] registered a normalised SPOT signal, Boehringer light units (BLU); mean over the file's lines of this peptide of 223.

Regarding SLFPLKTPISPGTS [YOR106W 114-127], the normalised SPOT signal, Boehringer light units (BLU); mean over the file's lines of this peptide worked out at 239.

Molecule SPFTFLFPFLPTII [YER017C 223-236] yielded a normalised SPOT signal, Boehringer light units (BLU); mean over the file's lines of this peptide of 366.

The molecule TASQLQNPPPPPST [YGR086C 14-27] registered a normalised SPOT signal, Boehringer light units (BLU); mean over the file's lines of this peptide of 168.

Molecule TAPIHSTPKPPPND [YHR182W 732-745] had a normalised SPOT signal, Boehringer light units (BLU); mean over the file's lines of this peptide of 77.7.

SLLIHSLPRKPLLM [YGL104C 357-370] yielded a normalised SPOT signal, Boehringer light units (BLU); mean over the file's lines of this peptide of 314.

SPFSLFIPTIPATT [YNL043C 79-92] gave a normalised SPOT signal, Boehringer light units (BLU); mean over the file's lines of this peptide of 152.

SPSQYQYPSQPALS [YKL146W 143-156]: the normalised SPOT signal, Boehringer light units (BLU); mean over the file's lines of this peptide was determined as 65.2.

SWLTMLPPMAPLLS [YMR158W-A 93-106]: the normalised SPOT signal, Boehringer light units (BLU); mean over the file's lines of this peptide worked out at 505.

Molecule SPVPLGSPRGPLPV [YLR163C 237-250] registered a normalised SPOT signal, Boehringer light units (BLU); mean over the file's lines of this peptide of 135.

For TEDGFVIPALPAAV [YPR190C 407-420], the normalised SPOT signal, Boehringer light units (BLU); mean over the file's lines of this peptide amounted to 290.

Take SLSALVGPVIPHTI [YMR177W 252-265]: the normalised SPOT signal, Boehringer light units (BLU); mean over the file's lines of this peptide stood at 28.4.

Consider SPVNLLKPFNPTLP [YJL050W 730-743], for which the normalised SPOT signal, Boehringer light units (BLU); mean over the file's lines of this peptide is 123.

Take SLISMETPEQPHQQ [YAL047C 546-559]: the normalised SPOT signal, Boehringer light units (BLU); mean over the file's lines of this peptide was determined as 147.

Consider SFTPFNRPSDPSNG [YPL066W 70-83], for which the normalised SPOT signal, Boehringer light units (BLU); mean over the file's lines of this peptide stood at 208.

Take TEEILPTPVQPGGH [YOL070C 304-317]: the normalised SPOT signal, Boehringer light units (BLU); mean over the file's lines of this peptide worked out at 121.

As to TFRDMDLPQHPVIH [YLR030W 45-58], the normalised SPOT signal, Boehringer light units (BLU); mean over the file's lines of this peptide stood at 188.
